Source: PMC9190237 (Biochemistry, 2022)
Where no end group is shown, it is not given here. FAM = fluorescein

B5: Unmodified H3^(FAM) peptide (ARTKQTARKSTGG{K-FAM}) (peptide)
peptide: ARTKQTARKSTGGK(FAM)

Tests used:
[1] = target: UHRF1^PHD (as used for tryptophan fluorescence) (human (by the printed accession)); experiment: intrinsic tryptophan fluorescence quenching
[2] = target: T1, UHRF1^PHD (Homo sapiens, UniProt Q96T88); experiment: Intrinsic tryptophan; type: binding; conditions: 5 μM peptide, 1 μM UHRF1^PHD
T1 sequence (Q96T88 298-366): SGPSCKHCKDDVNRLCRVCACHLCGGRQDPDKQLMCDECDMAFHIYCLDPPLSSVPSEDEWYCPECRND

[3] = target: T2, UHRF1^TTD-PHD (His-tagged TTD-PHD domains of UHRF1; residues 133-366) (human (by the printed accession), UniProt Q96T88-1 133-366); experiment: AlphaScreen or HTRF
T2 sequence (looked up): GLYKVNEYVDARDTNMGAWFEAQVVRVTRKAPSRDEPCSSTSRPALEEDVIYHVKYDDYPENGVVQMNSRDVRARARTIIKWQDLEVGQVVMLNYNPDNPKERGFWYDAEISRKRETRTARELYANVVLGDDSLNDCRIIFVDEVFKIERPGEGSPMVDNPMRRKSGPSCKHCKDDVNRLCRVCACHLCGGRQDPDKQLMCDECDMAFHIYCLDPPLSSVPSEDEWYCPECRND

[4] = target: B5; experiment: fluorescence polarisation
[5] = target: T2, UHRF1^TTD-PHD (His-tagged TTD-PHD …); experiment: fluorescence polarisation
[6] = target: T3, UHRF1^TTD (TTD construct alone; residues 127-285) (human (by the printed accession), UniProt Q96T88-1 127-285); experiment: fluorescence polarisation
T3 sequence (looked up): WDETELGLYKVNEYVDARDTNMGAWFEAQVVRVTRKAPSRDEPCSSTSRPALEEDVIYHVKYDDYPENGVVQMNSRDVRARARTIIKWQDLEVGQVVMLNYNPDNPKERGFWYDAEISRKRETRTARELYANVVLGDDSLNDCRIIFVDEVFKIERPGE

[7] = target: T4, Full-length UHRF1 (N-terminal 6xHis tag) (human (by the printed accession), UniProt Q96T88-1 1-793); experiment: fluorescence polarisation
T4 sequence (looked up): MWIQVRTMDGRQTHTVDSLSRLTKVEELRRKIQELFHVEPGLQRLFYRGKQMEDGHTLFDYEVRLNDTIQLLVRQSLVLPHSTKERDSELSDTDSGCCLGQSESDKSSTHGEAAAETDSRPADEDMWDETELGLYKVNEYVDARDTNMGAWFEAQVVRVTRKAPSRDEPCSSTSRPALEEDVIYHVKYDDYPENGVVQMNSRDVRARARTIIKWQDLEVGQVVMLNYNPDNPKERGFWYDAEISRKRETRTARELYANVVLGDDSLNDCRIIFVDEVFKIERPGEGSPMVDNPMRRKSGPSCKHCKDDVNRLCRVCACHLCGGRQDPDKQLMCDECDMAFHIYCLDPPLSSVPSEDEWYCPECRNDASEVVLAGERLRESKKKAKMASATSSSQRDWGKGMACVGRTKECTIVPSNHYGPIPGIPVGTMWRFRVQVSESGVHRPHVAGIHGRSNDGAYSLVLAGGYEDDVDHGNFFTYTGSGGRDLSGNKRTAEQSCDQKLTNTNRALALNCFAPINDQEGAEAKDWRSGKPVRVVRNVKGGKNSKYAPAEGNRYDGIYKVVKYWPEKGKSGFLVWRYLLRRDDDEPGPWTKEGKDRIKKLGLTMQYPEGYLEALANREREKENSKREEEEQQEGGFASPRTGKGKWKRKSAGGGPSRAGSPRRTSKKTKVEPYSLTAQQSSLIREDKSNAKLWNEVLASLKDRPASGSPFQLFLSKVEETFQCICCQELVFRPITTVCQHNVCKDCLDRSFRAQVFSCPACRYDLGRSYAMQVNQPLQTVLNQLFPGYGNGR

[8] = target: T2, UHRF1^TTD-PHD (His-tagged TTD-PHD …); experiment: fluorescence polarisation; remark: listed apart in the source
[9] = target: T5, GST-UHRF1^PHD (residues 298-366) (human (by the printed accession), UniProt Q96T88-1 298-366); experiment: fluorescence polarisation
T5 sequence (looked up): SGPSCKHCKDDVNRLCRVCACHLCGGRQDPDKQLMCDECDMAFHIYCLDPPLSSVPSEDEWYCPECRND

Molecule: H3K9me3^(FAM) peptide (ARTKQTAR{K-me3}STGG{K-FAM})
- percent quenching of W358 fluorescence [1]: 50%

Molecule: ARTKQTAR{K-me3}STGG{K-FAM} [H3K9me3^(FAM)]
- W358 tryptophan fluorescence quenching of UHRF1^PHD [2]: ~ 50%

B1: H3K9me3 peptide (unlabeled; ARTKQTAR{K-me3}STGGKW) (peptide)
peptide: ARTKQTARKSTGGKW
modifications: trimethyl-lysine at K9
- binding result [3]: binds

B2: GST-UHRF1^(PHD; 337A) (domain or fragment, human (by the printed accession), UniProt Q96T88-1 298-366, looked up)
chain: SGPSCKHCKDDVNRLCRVCACHLCGGRQDPDKQLMCDECAMAFHIYCLDPPLSSVPSEDEWYCPECRND
- fold impairment of binding against GST-UHRF1^PHD [4]: ~12 fold

B3: H3K9me3^(Biotin) peptide (ARTKQTAR{K-me3}STGG{K-biotin}W) (peptide)
peptide: ARTKQTARKSTGGKW
modifications: trimethyl-lysine at K9; biotin on K14
- binding result [3]: binds

B4: H3K9me3^(FAM) peptide (ARTKQTAR{K-me3}STGG{K-FAM}) (peptide)
peptide: ARTKQTARKSTGGK
modifications: trimethyl-lysine at K9; FAM (fluorescein) on K14
- binding result [5]: binds
- binding result [6]: binds
- binding result [7]: binds

Molecule: B5
- binding result [8]: binds
- binding result [9]: binds

B6: PBR^(FAM) peptide ({G-FAM}KGKWKRKSAGGGPS; UHRF1 polybasic region, residues 643-657) (peptide)
peptide: {FAM}-GKGKWKRKSAGGGPS
- binding result [6]: binds
